The results in this text go back to article doi:10.1101/2020.02.07.938506 (2020).

By Kd is commonly meant the concentration at which binding is half-saturated. A low value points to higher affinity.

The target of this assay is T1, MNV P domain (protruding domain of the capsid protein VP1 of murine norovirus) (murine norovirus (MNV), strain CW3, UniProt Q80J94 225-541).
T1 chain: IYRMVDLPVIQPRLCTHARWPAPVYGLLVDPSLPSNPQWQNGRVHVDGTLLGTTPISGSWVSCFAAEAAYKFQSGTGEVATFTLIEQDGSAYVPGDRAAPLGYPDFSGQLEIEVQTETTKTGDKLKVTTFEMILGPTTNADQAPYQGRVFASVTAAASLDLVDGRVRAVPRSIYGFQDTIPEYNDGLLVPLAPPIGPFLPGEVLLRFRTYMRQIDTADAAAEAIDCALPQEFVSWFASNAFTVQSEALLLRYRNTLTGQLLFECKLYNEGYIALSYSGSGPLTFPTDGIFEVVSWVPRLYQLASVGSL
As to the kind of experiment: ITC. (ITC needs no label: the signal is the heat of the interaction.)

B1: Nanobody NB-5829 (VHH)
VHH: QVQLQESGGGLVEAGGSLRLSCLGSGLTFSRYAMGWFRQAPGKEREFVASITRSGGSPNYADSVKGRFTISRDNAKNTVYLQMSSLKPEDTAVYYCAGRGSVYYDVWGQGTQVTVSS
The molecule B1 showed a Kd of 1.4 nM.
